Measured values reported in article PMC4420033, “Structure and heme-binding properties of HemQ (chlorite dismutase-like protein) from Listeria monocytogenes” (Archives of Biochemistry and Biophysics, 2015).
Where “and” joins values, the source holds several entries; their conditions need not be identical. Equal values may be shown once.

How the values were obtained:
[1] = biological target: T1, LmCld (chlorite dismutase-like protein, HemQ) (Listeria monocytogenes, UniProt Q8Y5F1); test: electronic circular dichroism titration, Soret minimum […] nm, Hill fit; type: binding
T1 construct: gene chdC; N-terminal StrepII-tag, TEV-cleavable (cleaved for crystallization); recombinant in E. coli Tuner (DE3); subunit approx. 30 kDa; hexamer approx. 180 kDa in solution, pentamer in crystal
T1 sequence (Q8Y5F1 1-251): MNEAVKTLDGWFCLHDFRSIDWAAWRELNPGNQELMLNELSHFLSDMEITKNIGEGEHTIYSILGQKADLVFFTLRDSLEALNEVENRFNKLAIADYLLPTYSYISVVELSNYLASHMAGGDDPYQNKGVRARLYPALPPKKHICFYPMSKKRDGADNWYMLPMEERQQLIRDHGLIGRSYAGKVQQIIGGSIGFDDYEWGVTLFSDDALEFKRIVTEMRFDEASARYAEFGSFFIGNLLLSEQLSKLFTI

[2] = biological target: the molecule itself; test: SEC-MALS; Superdex 200 10/300 GL, Dulbecco PBS plus 200 mM NaCl, 0.75 mL per min, 50 ug protein injected
[3] = biological target: the molecule itself; test: crystal structure; apo-LmCld, 0.1 M Tris pH 8.5, 0.6 M potassium sodium tartrate, 8% glycerol; 2.0 A, space group P 1 21 1

Row | Molecule | stoichiometry N [2] | other results
1 | C=CC1=C(C)C2=Cc3c(C=C)c(C)c4[n]3[Fe]([Cl])[n]3c(c(C)c(CCC(=O)O)c3=CC3=NC(=C4)C(C)=C3CCC(=O)O)=CC1=N2 [hemin] | – | Kd [1]: 7.2 ± 0.5 µM
2 | apo-LmCld (heme-free chlorite dismutase-like protein from Listeria monocytogenes) (natural protein, UniProt Q8Y5F1 1-251, looked up, Chlorite dismutase-like protein (HemQ) of Listeria monocytogenes; subunit of about 30 kDa; Heme-free form; The template was strain L028, the ORF annotation is of strain EGD-e; The tag is TEV-cleavable; also called HemQ; Cld-like protein) MNEAVKTLDGWFCLHDFRSIDWAAWRELNPGNQELMLNELSHFLSDMEITKNIGEGEHTIYSILGQKADLVFFTLRDSLEALNEVENRFNKLAIADYLLPTYSYISVVELSNYLASHMAGGDDPYQNKGVRARLYPALPPKKHICFYPMSKKRDGADNWYMLPMEERQQLIRDHGLIGRSYAGKVQQIIGGSIGFDDYEWGVTLFSDDALEFKRIVTEMRFDEASARYAEFGSFFIGNLLLSEQLSKLFTI | 6 subunits and 12 subunits | –
3 | apo-LmCld, StrepII-tag cleaved off (as crystallized) (natural protein, Listeria monocytogenes, UniProt Q8Y5F1 1-251, looked up, Chlorite dismutase-like protein (HemQ) of Listeria monocytogenes; Heme-free; homopentamer in the crystal lattice; also called HemQ; LmCld (4WWS); source: E. coli Tuner (DE3), purified (StrepTrap, TEV cleavage, Superdex 200); not shown: StrepII, N-terminal, cleaved) MNEAVKTLDGWFCLHDFRSIDWAAWRELNPGNQELMLNELSHFLSDMEITKNIGEGEHTIYSILGQKADLVFFTLRDSLEALNEVENRFNKLAIADYLLPTYSYISVVELSNYLASHMAGGDDPYQNKGVRARLYPALPPKKHICFYPMSKKRDGADNWYMLPMEERQQLIRDHGLIGRSYAGKVQQIIGGSIGFDDYEWGVTLFSDDALEFKRIVTEMRFDEASARYAEFGSFFIGNLLLSEQLSKLFTI | – | stoichiometry N [3]: 5 subunits
4 | holo-LmCld (heme b-bound chlorite dismutase-like protein from Listeria monocytogenes) (natural protein, UniProt Q8Y5F1 1-251, looked up, Chlorite dismutase-like protein (HemQ) of Listeria monocytogenes; subunit of about 30 kDa; heme is partly lost in the high-salt running buffer of the SEC-MALS; also called HemQ; Cld-like protein) MNEAVKTLDGWFCLHDFRSIDWAAWRELNPGNQELMLNELSHFLSDMEITKNIGEGEHTIYSILGQKADLVFFTLRDSLEALNEVENRFNKLAIADYLLPTYSYISVVELSNYLASHMAGGDDPYQNKGVRARLYPALPPKKHICFYPMSKKRDGADNWYMLPMEERQQLIRDHGLIGRSYAGKVQQIIGGSIGFDDYEWGVTLFSDDALEFKRIVTEMRFDEASARYAEFGSFFIGNLLLSEQLSKLFTI | 6 subunits and 12 subunits | –
